Measurements: paper PMC2770678 (Nucleic Acids Research, 2009)

Target: T1, P. furiosus AP endonuclease (PfuAPE), PF0258 gene product, His-tagged recombinant (Pyrococcus furiosus, UniProt Q8U437 1-281)
T1 sequence (looked up): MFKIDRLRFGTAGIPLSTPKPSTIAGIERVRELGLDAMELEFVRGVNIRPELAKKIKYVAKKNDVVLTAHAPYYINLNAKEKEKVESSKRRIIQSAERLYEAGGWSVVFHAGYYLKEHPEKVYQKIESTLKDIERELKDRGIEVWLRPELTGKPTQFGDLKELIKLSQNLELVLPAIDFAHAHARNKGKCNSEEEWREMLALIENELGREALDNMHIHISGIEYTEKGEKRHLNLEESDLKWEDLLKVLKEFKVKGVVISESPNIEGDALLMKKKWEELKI
Assay: SPR

B1: P. furiosus proliferating cell nuclear antigen (PfuPCNA), recombinant wild type (natural protein, Pyrococcus furiosus, UniProt O73947 1-249, looked up)
chain: MPFEIVFEGAKEFAQLIDTASKLIDEAAFKVTEDGISMRAMDPSRVVLIDLNLPSSIFSKYEVVEPETIGVNMDHLKKILKRGKAKDTLILKKGEENFLEITIQGTATRTFRVPLIDVEEMEVDLPELPFTAKVVVLGEVLKDAVKDASLVSDSIKFIARENEFIMKAEGETQEVEIKLTLEDEGLLDIEVQEETKSAYGVSYLSDMVKGLGKADEVTIKFGNEMPMQMEYYIRDEGRLTFLLAPRVEE
For B1, which Kd is on record?
Its Kd is 1000 nM.
